Source: US11242370B2, “Neuregulin-4 compounds and methods of use” (Eli Lilly and Company, priority 2019, dated 2022)

Target: T1, human HER2/HER4 (Homo sapiens, UniProt Q15303)
T1 construct: expressed in transfected cells
Assay: Human HER2/HER4 phospho-ERK 1/2 assay, purified proteins, CHO-K1 cells
Assay type: cell-based
Conditions: for % Maximal NRG1 activity: maximal signal relative to native human NRG1 per plate; for EC50: purified proteins, phospho-ERK1/2
Description: A cell based assay utilizing CHO-K1 cells overexpressing human or rat HER receptors is used to determine activity of NRG4 compounds. CHO-K1 cells (ATCC) are grown in DMEM-F12 3:1 with 5% FBS with 20 mM HEPES, 40 μg/mL L-Proline, lx antibiotics and were split 1:5 every 2-3 days with TripLE Express (Gibco). Cells are transfected with plasmid DNA encoding HER receptors in pairs (hHER2-3, hHER2-4, rHER2-3 and rHER2-4) with Fugene 6 (Promega) according to the manufacturer's instructions. […] Transfected cells are selected with Puromycin (12 ug/ml) and Hygromycin (1 mg/ml) for 3-4 weeks and clonal lines are obtained by limited dilution cloning into 96 well plates. Clonal lines are selected by appropriate gene expression of HER2, HER3 or HER4 by Taqman method. Lines with appropriate receptor expression are confirmed by NRG1 induced phospho-ERK 1/2 responses. Clones are grown up, harvested, aliquoted into cryovials and then frozen under liquid nitrogen for long-term storage.
A phospho-ERK1/2 activity assay is utilized with CHO-K1 cells overexpressing human or rat HER receptors to determine potencies and selectivity of purified NRG4 compounds. CHO-K1 cell lines expressing the human or rat HER receptors are cultured with selection medium (DMEM-F12 3:1 with 5% FBS with 20 mM HEPES, 40 μg/mL L-Proline, 1× antibiotics, 12 μg/mL puromycin, 1 mg/mL Hygromycin B). On Day −1 (the day before phospho-ERK1/2 assay), cells are washed once with PBS, detached with enzyme free cell dissociation solution (GIBCO cat #13151-014), and resuspended in plating medium (DMEM-F12 3:1 with 20 mM HEPES, lx antibiotics, 0.2% FBS). Cells are plated in a 96-well Poly-D-Lysine coated plate (BD cat #354640) at 10,000 cells per 0.1 mL per well. Cells are cultured in a tissue culture incubator at 37° C. 5% CO2 overnight. On Day 1 (the day of pERK1/2 assay), plates are incubated at room temperature for 30 min. The culture media are removed followed by addition of 504, ligand at various concentrations diluted in PBS-20 mM HEPES-0.005% BSA. Native human NRG1 and NRG4 peptides are purchased from Reprokine (Tampa, Fla.). The stimulation time is 30 min (except for hHER2-4 1H6 line in which 15 min is used for stimulation). At the end of stimulation, ligands are removed and 704, Lysis buffer (made according to manufacturer's recipe, Perkin Elmer cat #ALSU-PERK-A10K) is added. Plates are incubated at room temperature for 10 min on plate shaker with 350 rpm agitation, then on ice for 1 hour without shaking. 304, of cell lysis is transferred to a 96-well white Optiplate (Perkin Elmer cat #6002290) for phospho-ERK1/2 assay. Briefly 7.5 μL acceptor beads are added to 30 μL lysis in Optiplate. The plate is covered with aluminum foil and incubated at room temperature for 1 hour on plate shaker with 350 rpm agitation. Then 7.5 μL donor beads are added and the plate is covered with aluminum foil and incubated at room temperature for 2 hours on plate shaker with 350 rpm agitation or at 4° C. for overnight (warm up plate at room temperature for 2 h before reading). Alpha signal data are obtained on an Envision instrument (Alpha Technology-compatible plate reader). Donor beads and acceptor beads are made according to assay protocol. The data shown are generated with either the AlphaScreen SureFire p-ERK1/2 (Thr202/Tyr204) assay kit (Cat #TGRES50k) or the AlphaLISA® SureFire® Ultra™ p-ERK 1/2 (Thr202/Tyr204) assay kit (Perkin Elmer cat #ALSU-PERK-A10K). The activity of the NRG1 peptide was similar in both types of assays. Raw data obtained from the Envision instrument is imported into GraphPad Prism software (version 7). The EC50 value is generated by a variable slope-four parameter dose response curve. The % of maximal NRG1 activity data are generated by expressing the average maximal raw data for the NRG4 compound over the average maximal raw data for the native human NRG1 per plate and multiplying by 100. Data are provided below in Tables 7-9. N values reflect number of independent assays run. […]

% Maximal NRG1 activity | EC50 | Molecule
100% | 0.67 ± 0.07 nM | WT NRG1: wild type human NRG1; native peptide purchased from Reprokine in Tables 7-9; comparator in the screening assays of Tables 4 and 6
75 ± 4 (N = 8) % | 90.1 ± 33.2 nM | WT NRG4: wild type human NRG4 (SEQ ID NO:1); parental hFcNRG4 in screening (Tables 4-6), native peptide from Reprokine in Tables 7-9 (DHEEPCGPSHKSFCLNGGLCYVIPTIPSPFCRCVENYTGARCEEVFL; listed as Homo sapiens)

Molecule | % Maximal NRG1 activity | EC50
Example 10: NRG4 D1G/V22Q/E44K, (GGGGS)3 linker, SEQ ID NO: 19, fused to IgG Fc dimer SEQ ID NO: 6 and 7 (protein) chain 1: GGGGSGGGGSGGGGSGHEEPCGPSHKSFCLNGGLCYQIPTIPSPFCRCVENYTGARCEKVFL chain 2: ECPPCPAPPVAGPSVFLFPPKPKDTLMISRTPEVTCVVVDVSHEDPEVQFNWYVDGVEVHNAKTKPREEQFNSTFRVVSVLTVVHQDWLNGKEYKCKVSNKGLPAPIEKTISKTKGQPREPQVYTLPPSREEMTKNQVSLWCLVKGFYPSDIAVEWESNGQPENNYKTTPPVLDSDGSFFLYSKLTVDKSRWQQGNVFSCSVMHEALHNHYTQKSLSLSPG chain 3: ECPPCPAPPVAGPSVFLFPPKPKDTLMISRTPEVTCVVVDVSHEDPEVQFNWYVDGVEVHNAKTKPREEQFNSTFRVVSVLTVVHQDWLNGKEYKCKVSNKGLPAPIEKTISKTKGQPREPQVYTLPPSREEMTKNQVSLSCAVKGFYPSDIAVEWESNGQPENNYKTTPPVLDSDGSFFLVSKLTVDKSRWQQGNVFSCSVMHEALHNHYTQKSLSLSPG | 82 ± 4 (N = 8) % | 0.16 ± 0.02 nM
